Among the data in patent publication US5976859 are proteolytic activity (U/mg), casein as substrate, hydrolysis of Azocoll, absorbance and percent of β-casein hydrolyzed, band intensity on SDS-PAGE values, retold here.

Substance protease Q (enzyme) came in with a proteolytic activity (U/mg), casein as substrate with casein of 4290 U/mg. This substance returned a hydrolysis of Azocoll, absorbance at 520 nm (% of original activity) with Azocoll of 47. Moreover, the percent of β-casein hydrolyzed, band intensity on SDS-PAGE with β-casein was found to be 87 % hydrolyzed.
